According to the RNAGym collection of RNA variant scans (doi:10.7554/elife.80360):

B1: CPEB3 Ribozyme (parent)
chain: GGGGGCCACAGCAGAAGCGUUCACGUCGCGGCCCCUGUCAGAUUCUGGUGAAUCUGCGAAUUCUGCUGU

Variants of: B1
Experiment: self-cleavage, relative activity (ratio to wild type); higher = more cleavage; co-transcriptional
Variant GGGGGCCACAGCAGAAGCGUUCACGCCGCGGCGCCUGUCAGAUUCUGGUGAAUCUGCGAAUUCUGCUGU has a self-cleavage of 0.474. Work on GGGGGCCACAGCAGAAGCGUUCACGCCGCGGCACCUGUCAGAUUCUGGUGAAUCUGCGAAUUCUGCUGU yielded a self-cleavage of 0.826. GGGGGCCACAGCAGAAGCGUUCACGCCGCGGCCCCUGUCAGAUUCUGGUGAAUCUGCUAAUUCUGCUGU showed a self-cleavage of 0.993. GGGGGCCACAGCAGAAGCGUUCACGCCGCGGCCCCUGUCAGAUUCUGGUGAAUCUGCAAAUUCUGCUGU showed a self-cleavage of 0.937. GGGGGCCACAGCAGAAGCGUUCACGCCGCGGCCCCUGUCAGAUUCUGGUGAAUCUGCCAAUUCUGCUGU gave a self-cleavage of 0.963. For GGGGGCCACAGCAGAAGCGUUCACGCCGCGGCCCCUGUCAGAUUCUGGUUAAUCUGCGAAUUCUGCUGU, the self-cleavage was 0.956. Work on GGGGGCCACAGCAGAAGCGUUCACGCCGCGGCCCCUGUCAGAUUCUGGUCAAUCUGCGAAUUCUGCUGU yielded a self-cleavage of 1. GGGGGCCACAGCAGAAGCGUUCACGCCGCGGCCCCUGGCAGAUUCUGGUGAAUCUGCGAAUUCUGCUGU showed a self-cleavage of 0.188. In the case of GGGGGCCACAGCAGAAGCGUUCACGCCGCGGCCCCUGACAGAUUCUGGUGAAUCUGCGAAUUCUGCUGU, the self-cleavage is reported as 0.837. In the case of GGGGGCCACAGCAGAAGCGUUCACGCCGCGGCCCCUGCCAGAUUCUGGUGAAUCUGCGAAUUCUGCUGU, the self-cleavage is reported as 0.925. With GGGGGCCACAGCAGAAGCGUUCACGCCGCGGCCCCUGUCAGAUUCUGGUGAAUCUGCGAAUUCCGCUGU the self-cleavage was 0.688. For GGGGGCCACAGCAGAAGCGUUCACGCCGCGGCCCCUGUCAGAUUCUGGUGAAUCUGCGAAUUCAGCUGU, the self-cleavage was 0.768. Work on GGGGGCCACAGCAGAAGCGUUCACGCCGCGGCCCCUGUCAGAUUCCGGUGAAUCUGCGAAUUCUGCUGU yielded a self-cleavage of 0.95. GGGGGCCACAGCAGAAGCGUUCACGCCGCGGCCCCUGUCAGAUUCGGGUGAAUCUGCGAAUUCUGCUGU gave a self-cleavage of 0.893. With GGGGGCCACAGCAGAAGCGUUCACGCCGCGGCCCCUGUCAGAUUCAGGUGAAUCUGCGAAUUCUGCUGU the self-cleavage was 1.02. For GGGGGCCACAGCAGAAGCGUUCACGCCGCGGCCCCUGUUAGAUUCUGGUGAAUCUGCGAAUUCUGCUGU, the self-cleavage was 0.85. Variant GGGGGCCACAGCAGAAGCGUUCACGCCGCGGCCCCUGUGAGAUUCUGGUGAAUCUGCGAAUUCUGCUGU has a self-cleavage of 0.939. Variant GGGGGCCACAGCAGAAGCGUUCACGCCACGGCCCCUGUCAGAUUCUGGUGAAUCUGCGAAUUCUGCUGU has a self-cleavage of 0.108. GGGGGCCACAGCAGAAGCGUUCACGCCUCGGCCCCUGUCAGAUUCUGGUGAAUCUGCGAAUUCUGCUGU showed a self-cleavage of 0.139. With GGGGGCCACAGCAGAAGCGUUCACGCCGCGGCCCCUGUCAGAUUUUGGUGAAUCUGCGAAUUCUGCUGU the self-cleavage was 0.953. For GGGGGCCACAGCAGAAGCGUUCACGCCGCGGCCCCUGUCAGAUUCUGGCGAAUCUGCGAAUUCUGCUGU, the self-cleavage was 0.932. In the case of GGGGGCCACAGCAGAAGCGUUCACGCCGCGGCCCCUGUCAGAUUCUGGGGAAUCUGCGAAUUCUGCUGU, the self-cleavage is reported as 1.01. With GGGGGCCACAGCAGAAGCGUUCACGCCGCGGCCCCUGUCACAUUCUGGUGAAUCUGCGAAUUCUGCUGU the self-cleavage was 0.708. In the case of GGGGGCCACAGCAGAAGCGUUCACGCCGCGGCCCCUGUCAAAUUCUGGUGAAUCUGCGAAUUCUGCUGU, the self-cleavage is reported as 0.673. Work on GGGGGCCACAGCAGAAGCGUUCACGCCGCGGCCCCUGUCAUAUUCUGGUGAAUCUGCGAAUUCUGCUGU yielded a self-cleavage of 0.8. With GGGGGCCACAGCAGAAGCGUUCACGCCGCGGCCCCUGUCAGAUUCUGGUGAAUUUGCGAAUUCUGCUGU the self-cleavage was 1.03. Variant GGGGGCCACAGCAGAAGCGUUCACGCCGCGGCCCCUGUCAGAUUCUGGUGAAUAUGCGAAUUCUGCUGU has a self-cleavage of 0.92. Variant GGGGGCCACAGCAGAAGCGUUCACGCCGCGGCCCCUGUCAGAUUCUGGUGAAUGUGCGAAUUCUGCUGU has a self-cleavage of 0.871. In the case of GGGGGCCACAGCAGAAGCGUUCACGCCGCGGCCCCUGUCAGAUUCUGGUGAAUCUGCGAAUUCUACUGU, the self-cleavage is reported as 0.713. With GGGGGCCACAGCAGAAGCGUUCACGCCGCGGCCCCUGUCAGAUUCUGGUGAAUCUGCGAAUUCUCCUGU the self-cleavage was 0.547. In the case of GGGGGCCACAGCAGAAGCGUUCACGCCGCUGCCCCUGUCAGAUUCUGGUGAAUCUGCGAAUUCUGCUGU, the self-cleavage is reported as 0.304. With GGGGGCCACAGCAGAAGCGUUCACGCCGCAGCCCCUGUCAGAUUCUGGUGAAUCUGCGAAUUCUGCUGU the self-cleavage was 0.749. Work on GGGGGCCACAGCAGAAGCGUUCACGCCGGGGCCCCUGUCAGAUUCUGGUGAAUCUGCGAAUUCUGCUGU yielded a self-cleavage of 0.345. GGGGGCCACAGCAGAAGCGUUCACGCCGAGGCCCCUGUCAGAUUCUGGUGAAUCUGCGAAUUCUGCUGU gave a self-cleavage of 0.414. GGGGGCCACAGCAGAAGCGUUCACGCCGUGGCCCCUGUCAGAUUCUGGUGAAUCUGCGAAUUCUGCUGU gave a self-cleavage of 0.135. For GGGGGCCACAGCAGAAGCGUUCACGCCGCGGCCCCUGUCAGAUUCUGGUGAAUCUGCGAAGUCUGCUGU, the self-cleavage was 0.693. Work on GGGGGCCACAGCAGAAGCGUUCACGCCGCGGCCCCUGUCAGAUUCUGGUGAAUCUGCGAAAUCUGCUGU yielded a self-cleavage of 0.874. For GGGGGCCACAGCAGAAGCGUUCACGCCGCGGCCCCUGUCAGAUUCUGGUGAAUCUGCGAACUCUGCUGU, the self-cleavage was 0.617. With GGGGGCCACAGCAGAAGCGUUCACGCCGCGGGCCCUGUCAGAUUCUGGUGAAUCUGCGAAUUCUGCUGU the self-cleavage was 0.365.
